The results in this text go back to patent US20200102374A1 (VIB VZW, published 2020).

Assay [1] deals with F protein of RSV B49 virus (respiratory syncytial virus B49). Briefly: cell-based or functional assay.
The target of assay [2] is F protein of RSV A2 virus (respiratory syncytial virus A2, UniProt P03420 26-574). Put plainly: cell-based or functional assay.
Sequence of F protein of RSV A2 virus (P03420 26-574): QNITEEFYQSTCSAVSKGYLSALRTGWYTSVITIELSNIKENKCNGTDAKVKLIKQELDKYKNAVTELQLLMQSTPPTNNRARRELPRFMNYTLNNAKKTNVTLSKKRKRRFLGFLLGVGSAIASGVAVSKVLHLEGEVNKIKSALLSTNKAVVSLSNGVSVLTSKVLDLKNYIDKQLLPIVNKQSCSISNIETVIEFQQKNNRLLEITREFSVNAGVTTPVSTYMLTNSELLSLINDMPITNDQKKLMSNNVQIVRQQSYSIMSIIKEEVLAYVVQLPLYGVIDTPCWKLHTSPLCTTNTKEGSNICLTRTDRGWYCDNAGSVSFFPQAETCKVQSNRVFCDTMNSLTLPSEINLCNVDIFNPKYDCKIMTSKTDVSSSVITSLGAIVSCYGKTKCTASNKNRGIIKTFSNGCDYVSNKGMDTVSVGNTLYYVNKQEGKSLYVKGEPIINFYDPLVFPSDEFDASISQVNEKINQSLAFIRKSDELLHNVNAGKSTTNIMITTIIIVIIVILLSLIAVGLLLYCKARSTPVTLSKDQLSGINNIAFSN

B1: VHH-DS-Cav1-L66 (VHH)
VHH: QVQLQESGGGLVQPGGSLRLSCAASGFTLDYYYIGWFRQAPGKEREGVSCISSSHGSTYYADSVKGRFTISRDNAKNTVYLQMNSLKPEDTAVYYCATVAVAHFRGCGVDGMDYWGKGTQVTVSS
Consider B1, for which the “IC50 of neutralization of RSV B49 (plaque reduction on Vero cells)” value in assay [1] turned out to be 0.032 nM. Further, in assay [2], the “IC50 of in vitro neutralization of RSV A2 (plaque reduction on Vero cells)” value was 0.032 nM.

B2: VHH-DS-Cav1-4 (VHH)
VHH: QVQLQESGGGLVQPGGSLRLSCAASGFTLDYYYIGWFRQAPGKEREAVSCISGSSGSTYYPDSVKGRFTISRDNAKNTVYLQMNSLKPEDTAVYYCATIRSSSWGGCVHYGMDYWGKGTQVTVSS
As for B2, the “IC50 of neutralization of RSV B49 (plaque reduction on Vero cells)” value in assay [1] worked out at 0.015 nM. Besides, the “IC50 of in vitro neutralization of RSV A2 (plaque reduction on Vero cells)” value in assay [2] was determined as 0.021 nM.
